In the domain aggregation screens of Martell et al. (2025):

Assay: soluble fraction after stress (log2 fold change); higher = more stays soluble; pooled small domains, quantitative proteomics
Conditions: stress: 75 degC
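Also: 20 min heating vs room temperature control held 20 min.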

Sequence	soluble fraction (log2)
HMSKNTFIGNIDDKELYVGSGRYGPFMLYDGKFTNITRYLSDESKELTDITIDDYSKIVNNARPK	-0.175
HMGIYFIIAAKNQENNIEEFIRTTLFRIVYGKEESINNITLVDLKSKDNTKNIMEEIARENENVKV	-0.641
HMVDLDIENYELEDILNLFRLQYNFVEADLKRAYRMALKLHPDKSGLDGEYFRFYMKAYKIVENIFNFRNR	-1.5
HMKIDNIIIYITGGVKKEGVYELPDGSRISDAIEQAEGLKANADTSSINLAYKLEDGMKIKIPLQGEN	-0.181
HMTEDQDWAIFKQKLKAQTEIDLDLYKEPQMKHRIKNLIQNAGFDSYVQYFDYVYLNQDRLAAFLENLTV	-0.535
HMEATILTATPEAAGQRLDAFLAETLPELTRSAAQRLIAEGQVAVDGKIPTKSLKLAGGETVSVRLPEPE	0.734
HMNGADPYEQLGVTRDASDDELKAAHRKLSRENHPDTLMAKGMPPEFIEQANDKMARINAAWDQIRKERGI	0.323
HMPKPMKATKITLQQEPRIRVDFTYDPLKVQQIKTISGARWSKSLKAWHIPYTKEAFNQLKKLFPNVEIEV	-1.44
HMYEVDGLGIRIAQLRKKQDLTQEAFARTLGVSPQAVSKWETGIGYPDITLLPQIAKELGVSIDQLFGRN	-0.307
HMIKEYEVLNYVTYEYDEIKKKLEEDFGIIVLMKEAYSDETPAGIIMDQDVEQGRIFKEGATNTITFTVS	-0.582
HMNNWRRSLEREVTASLARGDRDIFDGLNRSFEAALITKALEHTGGRRIEAATLLGIGRNTLTRKIQDLGL	-2.11
HMRRIADVVPEQLTREEAEELLETLAEQGEIHEEQALLARYILEQSLQGVAPEVEPLIRAKLLAGILMVY	-2.18
HMNDLKVGELAKRGNVTAETVRHYTREGLLSPTRHPDNGYQLFSATDLERLHFIQRARKLGFSVAEIRDIL	-0.915
HMDLYEILGVRRGAGGGEIRRAYRRLARRYHPDVNPGDREAQARYALITRAFETLNDPERRRAYDAGVP	-0.817
HMAVTGRVDLRIKPWGYVSVDGAAKVSSPPTMQLKLAPGRHEIEITNPAGAAVTKTVDVIAGKSVTVQHN	-0.0874
HMEEEEITIHIIGEVKYPGIVILKTGQRIIDAIDAAGGETEEADLNKINLAQLLSDGDKIYVPSINDN	0.158
HMVKSIDEIYNEAVKSLANEDYDAAKKLFNYLINNFSDPDKFPLSLFWLAEIEFSSSNFDASKNYYMQ	0.0365
HMARDDVIRLVQLSLDHLPAKYADALEWKYVEGLSTKEIAARLELGSEAAESLLARARRAFKNDFQEIFES	-1.42
HMRPIDEVFGFFSRPENLTVITPSNLHFNILTPRPLEMKQGAVIDYTIKIFKVPIHWRTLITTYDPPFKFV	0.059
HMHSILDDIPTVGPARRKALMRRYESLEAIRQATVDELKELPEINEASAEAIVSFFAGQAKEG	-0.306
HMSASSDATRQRVLRAAEQLFGAKGVENVSLREMTTLAGVNLAAVNYHFGSKDALAEAVFEALSER	0.253
HMSQNVQDVFLNHVRKSKNPVTVFLVNGVKLQGIITWFDNFSVLLRREGHTQLVYKHAISTVMPSGPIQLF	0.113
HMAKQEPTDNGYDIYKVTASVLNVRNGAGTSYAVAYQLSKEDYVEVVSIDKGWAKLKDGKYVSADWITLYK	-2.53
HMKFGETLIDLRKRNGLTQEELAAKLYVTRQAVSRWERGEVTPGIDMLKLIANVLNEPVAHLLDW	-2.14
HMSPEVEEISIDHLKAGMRILSDLRLPNGTLVAPKGSVVDAHFIKIVENYVISYFGNPFPDRIKVIM	-1.95
HMQISDTSELEAVVQDILKANMDVVAKIKAGKTNSANFLMGQVMKLTKGRAKPDTVLQLILDAVKQ	-0.943

Sequence	soluble fraction (log2)
HMKTAAKVLGESGGKPVTVQSGRYGPYVQLGTIRATLPKDLDQEAVTLDKALELIDAKAERSGK	0.00631
HMITDQQKEQLSSLLKQAEAALAKAAANDQVLAAHKDEAVELLKSTSATSADAADLINELTELLKPYQ	0.973
HMTIRLKELRKQKGNTQAEVAKILGTNQSQYGKYENERTQLSLDNAKILSDYFGVSVPYLLGLDDNP	-0.361
HMQNYLLFEEAKNIVNTLNLTNEKDWSEFIKKDFTYKNQIPIFPNQYYKHKGWVDWNDWLGINK	-1.35
HMKLPNGYGGIAKLSGKRRNPWRVRVTKGWSVDEQTGKAKQLFSTLGYYPTRKDALAALSAYNQNP	-1.64
HMDLHSQVFESYERKIREVLREGPLTFEEILHAFALKRHETVAQVITYLMDEGKMSDSGDGKLIYSG	-0.86
HMKELFETLPDVLDAKLLASALSISKAGAYQLLNRPDFPTLQVGGWKLVTKQKLALWMEQHTN	-3.39
HMTPQEQWNNAYLLAKDYYDANGNLDIDEKYKTKDGFELGSWLTTQRNVYKRGKLSPEKTKKLEEIGISF	0.0776
HMPRNMTFAIRGEYITLDALLKAVGAADSGAQAKHRIAEGEVTVDGVVETRKTRKLRGGETVVVDDLAVVL	-0.734
HMGEWNSVFSVPSSVVDKHLKTASSVYVKVLLVILRNAGNRISDQQISEQLSVPVDEVQEAIRYWNAAGIF	-2.76
HMSWDNELLERAHKIIELYPQKRSALGPLLYLAQEKDGFISDDSIVEISNLVDITEVQVKSVSSFYSMY	-0.903
HMEHNDPEVERTMFQGLEALKLQLFEKAFGHFSLLIKLAPDYAEAWNKRATVLYLMGRFKESESDVMRTLE	0.16
HMYQNRLFYTLKTGETVADLSKSQDINLSTIWSLNKHLYSSESEMMKAAPGQQIILPLKKLP	-0.247
HMVDEAQSLERNVLLTVLSRIGRDSRVVLTHDIAQRDNLRVGRHDGVVAVVDRLKGHPLFAHVTL	0.163
HMVTYELTEDEKFIVSLLEKENSQPIGALKDKSALSGKKWDAAMKGLAKHGLTKVVVDGDNKLVVL	-0.0322
HMLPPLGDQELELLRFITESAPITVREAAESYGKDRGLARTTVLTMMERLRAKGYLTRSESGAANEYSP	-0.64
HMTLDDSIALGRSLLDKGLMDFGTNLANLAEDKLRDFLSQQRYENLDDLFADIARGNRLPMFTAQQLLS	-0.0666
HMLRPEEMIYHEMLDAILDRRLEPGMKLVEEDLAKTFGVSRARIRATFLQLAHDKLINLVPNRGAFVAEP	-2
HMNPGQIIRKLRQDQGMTLAVLAKYANLDPGNLSRIERDDLNISFNLLEKLSLILNVSPIVFFH	-0.119
HMQDTYQVKLLTNLNIRKSPNGTIVQKGGAKKGIIYTIVETSGTWGRLKSNAGWISVSDKYVTK	-3.58
HMSVTPLLDATEKDKTKYRDLWLVAVVKNGVNYARKYKFGYVYAWLYRHDRDWLLQVNNQHKIPNIT	0.0707
HMGTTTGKVNATGVNFRTGPSTSYSSMGKLGIDTAVTILGKSGDWYQVKVNSTGKTGYVFAKYITITSVV	-1.95
HMNREEKKALTRRQIIDVATRLFRQHGIHNTDLKTIATEAGVSVVTFYKYFDSKEALIGTIAAEQ	-0.804
HMQRVSDKVAAQLRVLVQEQQLKPGDRLPAERALAVQLGVSRTALREAIAQLASQGLLTARVGGGTYVAEP	-1.08
HMKTKTAPPDSIPPAWLKESATLRPDLNQAQIKASAEVFLDHHRAKGTTLADWRPAWRNWIRRERA	0.0178
HMHAPLEVGSVVRIEGQKALGTILSISDREAIVALGALKTTIPLKRLHGVSPAEAQRHLRKTTPAQAVR	-0.665

Sequence	soluble fraction (log2)
HMEYNLTLEELNRDLYIRGEIWNVGDVVKTTDGDEGTIIRKGTNYVVFEDLRRVWLHNLEEVK	-1.51
HMRSWRDQRVDDLLAAVSELGMTMSRAAAGDLLDQRVEYVANQMRVTPATARKYLTEETLAGMAREIVFG	-1.02
HMAAEIGSGVVDAYDLRLRSQPSTDAETIIYLDNGAKLSVQEDLGDWYKVVSGTYTGYVSAEYVAYTPSPE	-0.806
HMEDDPIYEQVMIFLLDKQITSAPELERRFKITHQRAIELLAQMEKTGIVSTMGHAGKRDVLT	-1.85
HMQKNFYQILGVDSKASPATINAAYERAKSRVIQSGLEDPDTMALLRDAWETLADPGDRAAYDESLAT	0.0744
HMKEHDTLALRLTAILRKLNDGEKLVPRELAEEFNVGIRTIQRDLTERLSFLDLEKTNGAYSLPTRNL	-0.843
HMEEQGLPLVIISDGKVLAQNLTLRSLDRAWLQDQLTQHGHSKPEQVFLLTVDERGAVYYVPKE	-0.556
HMDRPEPLYIVNGKEVQTLEEAFELGRTLGSAKKGTQVRLRRLLPEEGVEKYGEKGRNGVFEFMVSA	0.269
HMAPVEEWAKASVMEDPTLVTETMARIFAQQGQIGKARKAYRHLALTYPAKSTYFAAQLKKLNQR	-0.473
HMATYTPYDKQGAKLWRVTAYLGMDSVTGKQRNMKKGGFKTKKEAQLYYNQVKLDFENGTLDQ	-1.36
HMLTEKEEEVMQILWDNGPLFVREILEFYPDPKPHYNTVSTVIRVLEEKNFASHKAYGNTYQYFP	0.315
HMDSVTLGISFNGKTRFTLDFPADAAAADIEKAALEAEQSQRYLEGMTVAKVIVVPGRIVNIVLK	-2.23
HMDTLTRAMVWTIIARAEGVDTTGGATWYAKAQEWVTAKGISDGENPNAAITRQELVTMLYRLAGEPAV	-3.56
HMLELDRTNLLGVFGSKSNPYALIMLSNGEMLKLSIGDQFLGWRVYAIDQTTVHVQNGKNQEILRIP	-1.36
HMGKRPTIQMVAEMAGVSRGTVDRVLNGRSYVSAQVRQRVLAALQETGYISSREHHQQALQS	-0.691
HMSVKVFRDQILLNNDSDKMLQLSFSNLFGQKVLETSISPGKSAISTGNLPPGIYFITTSPATGVMRVII	-1.78
HMAFEITSAERTRLEDIARKGLTAYTAEWKQLPASEKKALNKTGLQDFLKSMAADADSAREEEA	0.0228
HMTMVKYRYLTDGELKEFEEEFKHFLIANGLHSEEWERLNNEDSNKAIEVVALFSNLILDKV	-1.81
HMFAERLKELRKMRRFSQHALAERLGISQQAVGKWETGKSTPDPATLREIADIFEVSVDLLLGR	-1.17
HMELNEMEAWSLVSKALRNGTYGAVEEFSRLPPTVQEAVGNPDNLRNWATSDYKAIETVIQSNFIKTY	-0.0842
HMVGLTDLQRNVLVQIARGKSRQLISRTLKVTPAEISAALKVAQRRYRVASSTEVIVQALYDKTLSFHEIM	-0.707
HMSSVEQAILETLSKEHSHLTSLQVFEEIRGRLPAVNQSTVYRALERLVEQGVVSVSDMGTHAAVYE	-0.197
HMPPDIKVVGVTVASDPRASFAMLSSNGKTLSYRVNDLIEGTEYHLIKVEAAAITIATAGGQSTQIAF	-2.54
HMAPTADSVPFVIRSVVGGAQPFIVLEDGSKLLVGGVYRKYRLVAVENTRIIFEGPRTAIVT	-1.51
HMIDPHGSLTLDLRPRDARVEIIDSNKTYKPGVRLPMGEYAIAVSRRGYISETKRINIEYGDNRERVAL	0.108
